From the nanobody polyreactivity screen of Harvey et al. (2022)

Assay: yeast display, Sf9 membrane polyspecificity reagent, FACS + sequencing; frameworks hold sequencing errors
Summary of the method: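 Sorting gates, low and high (top ~1%), were placed on anti-HA fluorescence to track expression and on streptavidin fluorescence to track reagent binding. A clone's polyreactivity label is taken from the gate it came out of. The reagent was 10% biotinylated, detergent-solubilized Sf9 membrane, applied for 1 hour at 4 °C to galactose-induced yeast display cells.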

| Sequence | polyreactivity (PSR sort gate) |
| --- | --- |
| QVQLVESGGGLVQAGGSLRLSCAASGSIFGIYTMGWYRQAPGKERELVAAITSVGSTNYADSVKGRFTISRDNAKNTVYLQMNSLKPEDTAGYYCARASAWYVTLVGKYTKYDYWGQGTQVTVSS | low polyreactivity |
| QVQLVESGGGLVQAGGSLRLSCAASGSIFGIYVMGWYRQAPGKERELVAGISTRGGSTYYADSVKGRFTISRDNAKNTVYLQMNSLKPEDTAVYYCAAVPASYRYPMYYWGQGTQVNVSS | low polyreactivity |
| QVQLVESGGGLVQAGGSLRLSCAASGSIFGKDAMVWYRQAPGKEREFVAGIRGSGTRTYYADSVKGRFTISRDNAKNTVYLQLNSLKPEDTAVYYCNAVFGYRGPYYYWGQGTQVTVSS | high polyreactivity |
| QVQLVESGGGLVQAGGSLRLSCAASGSIFGKNAMGWYRPAPGKERELVAAITRRGGSTYYADSVKGRFTISRDNAKNTVYLQMISLKPEDTAVYYCNALLTGGYQDSYPDDYWGQGTQVTVSS | high polyreactivity |
| QVQLVESGGGLVQAGGSLRLSCAASGSIFGKNVMGWYRQAPGKERELVAAISRSGGRTYYADSVKGRFTISRDNAKNTVYLQMNSLKPEDTAVYYCAADGQPIGQQTYDYWGQGTQVTVSS | high polyreactivity |
| QVQLVESGGGLVQAGGSLRLSCAASGSIFGKYAMGWYRQAPAKERELVAAISDSGSITYYADSVKGRFTISRDNAKNTVYLQMNSLKPEDTAVYYCAAEVKYYQSFKYDYWGQGTQVTVSS | high polyreactivity |
| QVQLVESGGGLVQAGGSLRLSCAASGSIFGKYAMGWYRQAPGKERELVAAISWSGGSTYYADSVKGRFTISRDNAKNTVYLQMNSLKPEDTAVYYCAKRRVYYGSRYNYWGQGTQVTVSS | high polyreactivity |
| QVQLVESGGGLVQAGGSLRLSCAASGSIFGKYAMGWYRQAPGKERELVAAITIRGGSTYYADSVKGRFTISRDNAKNTVYLQMNSLKPEDTAVYYCNAVSKYYFGVDYWGQGTQVTVSS | high polyreactivity |
| QVQLVESGGGLVQAGGSLRLSCAASGSIFGLNAMGCYRQAPGKERELVAAISGGSTNYADSVKGRFTISRDNAKNTVYLQMNSLKPEDTAVYYCAARARRRYYYWGQGTQVTVSS | high polyreactivity |
| QVQLVESGGGLVQAGGSLRLSCAASGSIFGLYAMGWYRQAPGKERELVAAISSSGGTTYYADSVKGRFTISRDNEKNTVYLQMNSLKPEDTAVYYCATDYYDDVTIGYDYWGQGTQVTVSS | low polyreactivity |
| QVQLVESGGGLVQAGGSLRLSCAASGSIFGLYAMGWYRQAPGKERELVAAITDSTGSTSYADSVKGRFTISRDNAKNTVYLQMNSLKPEDTAVYYCAAGQGRWRHGFDYWGQGTQVTVSS | low polyreactivity |
| QVQLVESGGGLVQAGGSLRLSCAASGSIFGLYAMGWYRQAPGKERELVARITRSGGRTYYADSVKGRFTISRDNAKNTVYLQMNSLKPEDTAVYYCNKLLPSYVLPDDYWGQGTQVTVSS | low polyreactivity |
| QVQLVESGGGLVQAGGSLRLSCAASGSIFGNYVMGWYRQAPGKERELVAAIRWTGGSTYYADSVKGRFTISRDNAKNTVYLQMNSLKAEDTAVYYSIADSSDDYDYWGQGTQVTVSS | low polyreactivity |
| QVQLVESGGGLVQAGGSLRLSCAASGSIFGPNAMGWYRQSPGKERELVAAISWGGGSTYYADSVKARITISRDNAINTVYLQMNILKPEDTGVYYCNASGYHDTAVRYDYWGQGTQVTVSS | low polyreactivity |
| QVQLVESGGGLVQAGGSLRLSCAASGSIFGPYAMGWYRQAPGKERELVAAISTRGGRTYYADSVKGRFTISRDNAKNTVYLQMISLKPEDTAVYYCNDRRSDSRSYDYWGQGTQVTVSS | high polyreactivity |
| QVQLVESGGGLVQAGGSLRLSCAASGSIFGPYAMGWYRQAPGKERELVATITSGGRTYYADSVKGRFTISRDNAKNTVYLQLNSLKPEDTAVYYCAAAGKGRYHFRSTMDYWGQGTQVTVSS | high polyreactivity |
| QVQLVESGGGLVQAGGSLRLSCAASGSIFGPYAMGWYRQAPGKERELVAVISRSGGSTYYADSVKGRFTISRDNAKNTVYLQMNSLKPEDTAVYYCAAYRGPRADYYWGQGTHVTVSS | high polyreactivity |
| QVQLVESGGGLVQAGGSLRLSCAASGSIFGPYAMGWYRQAPWKERELVATSTYYADSVKGRFTISRDNAKNTVYLQMNSLKPEDTAVYYCAKTPYYSGYGWGYDYWGQGTQVTVSS | low polyreactivity |
| QVQLVESGGGLVQAGGSLRLSCAASGSIFGPYVMGWYRQAPGKERELVAAISKSGGSTYYADSVKGRFTISRDNAKNTVYLQMNSLKPEDTAVYYCATDYLGGGKRYYYWGQGTQVTVSS | high polyreactivity |
| QVQLVESGGGLVQAGGSLRLSCAASGSIFGPYVMGWYRQAPGKERELVAAITFSGGSTYYADSVKGRFTISRDNAKNTVYLQMNSLKPEDTAVYYCNARPYSYRGSKRMYYWGQGTQVTVSS | high polyreactivity |
| QVQLVESGGGLVQAGGSLRLSCAASGSIFGQYAMGWYRQAPGKERELVASISASAASTYYADSVKGRFTISRDNAMNTVYLQLNSLKPEDTAVYYCNATTRWIGYVTIDFDYWGQGTQVNVSS | low polyreactivity |
| QVQLVESGGGLVQAGGSLRLSCAASGSIFGRNAKGWYRQAPRKERELVAAINSGGSTNYADSVKGRFTISRDNAKNTVYLQMNSLKPEDTAVYYCAARTYSSGRYYGYVAFYYWGQGTQVTVSS | high polyreactivity |

| Sequence | polyreactivity (PSR sort gate) |
| --- | --- |
| QVQLVESGGGLVQAGGSLRLSCAASGSIFGRNAMGWSRQAPGTERELVARISSRGGSTYYADSVKGRFTISRDNAKNTVYLQMNSLKPEDTAVYYCNRDRTWQTNDYWGQGTQVTVSS | high polyreactivity |
| QVQLVESGGGLVQAGGSLRLSCAASGSIFGRNAMGWYRQAPGKERELVAAITWRTGSTFYADSVKGRFTISRDNAKNTVYLQMNCLKPEDTAVYYCNAAGPAYSYYHWLWGDYNSWRQGTQVTVSS | low polyreactivity |
| QVQLVESGGGLVQAGGSLRLSCAASGSIFGRNAMGWYRQAPGKERELVAGMFYADSEKGRFTISRDNAKNTVYLQMNSLKPEDTAVYYCNADGTTDISNDNWYGYWGQGTQVTVSS | low polyreactivity |
| QVQLVESGGGLVQAGGSLRLSCAASGSIFGRNTMGWYRPAPGKERELVAAISSGGRTYYADSVKGRFTISRDNAKITVYLQINSLKPEDTAVYYCAAALRRRRADFDYWGQGTQVTVSS | high polyreactivity |
| QVQLVESGGGLVQAGGSLRLSCAASGSIFGRNTMGWYRQAPGKERELVAAISSRGTSTYYADSVKGRFTISRDNAKNTVYLQMNSLKPEDTAVYYCAARVYPYNYWGQGTQVTVSS | high polyreactivity |
| QVQLVESGGGLVQAGGSLRLSCAASGSIFGRNTMGWYRQAPGKERELVAAISSSGGSTRYADSVKGRFTISRDNAKITVYLQMNSLKQEDTAVYYCNDRPRTIYVNRKYDYWGQCTQVTVSS | high polyreactivity |
| QVQLVESGGGLVQAGGSLRLSCAASGSIFGRYAKRWYRQAPGKERELVAAISWNGGSTYYADSVKGRFTISRDNAKKTVDLQMNSLKPEDPAVYYCAVLSWWTKLSRRFYYWGQGTQVTVSS | high polyreactivity |
| QVQLVESGGGLVQAGGSLRLSCAASGSIFGRYAMGWYRQAPGKERELVAAIDGGGSTNYADSVKGRFTISRDNAKNTVYVQMNSLKPEDTAVYYCATEAKAYRYYYRTRHYYYWGQGTQVTVSS | low polyreactivity |
| QVQLVESGGGLVQAGGSLRLSCAASGSIFGRYAMGWYRQAPGKERELVAAISWRGGSTYYADSVKGRFTISRDNAKNTVYLQMNRLKPEDTAVYYCAKSGTFYYPRYDYWGQGTQVTVSS | high polyreactivity |
| QVQLVESGGGLVQAGGSLRLSCAASGSIFGRYAMGWYRQAPGKERELVAAISWRGGSTYYADSVKGRFTISRDNAKNTVYLQMNSLKPEDTAVYYCNVPYRSGYSHRYDYWGQGTQVTVSS | high polyreactivity |
| QVQLVESGGGLVQAGGSLRLSCAASGSIFGRYTMGWYRQAPGKERELVAAISSSGGRTYYADSVKGRFTISRDNAKNTVFLQMNSLKPEDTAVYYCNNGYGYEYYWGQGTQVTVSS | low polyreactivity |
| QVQLVESGGGLVQAGGSLRLSCAASGSIFGRYVMGWYRQAPGKERELVARITQSGGSTYYADSVKGRFTISRDNAKNTVYLQMNSLKPEDTAVYYCAAATSWWWLYYWGQGTQVTVSS | high polyreactivity |
| QVQLVESGGGLVQAGGSLRLSCAASGSIFGSNAMGWYRQAPGKERELVASITSSGGSTHYADSVKGRFTISRDNAKNTVYLQMNSLKPEDTAVYYCATRAYGYYRWLYDYWGQGTQVTVSS | low polyreactivity |
| QVQLVESGGGLVQAGGSLRLSCAASGSIFGSNMGWYRQAPGKERELVAAISSRGGRTYYADSVKGRFTISRDNAKNTVYLQMNSLKPEDTAVYYCATRTFRGCRGYEYWGQGTQVTVSS | high polyreactivity |
| QVQLVESGGGLVQAGGSLRLSCAASGSIFGSYAMGWSRQAPGKERELVAAISKSGGNTYYADSVKGRFTISRDNAKNTVYLQMNSLKPEDTAVYYCAAYGFYRWRGYDYWGQGTQVTVSS | high polyreactivity |
| QVQLVESGGGLVQAGGSLRLSCAASGSIFGSYAMGWYRQAPGKEREFVAGIDQSGSSTYYADSVKGRFTISRDNAKNTVYLQMNSLKPEDTAVYYCNAVWYFYSTYRKYYYWGQGTQVTVSS | high polyreactivity |
| QVQLVESGGGLVQAGGSLRLSCAASGSIFGSYAMGWYRQAPGKERELVAAISGSGGRTYYADSVKGRFTISRDNAKNTVYFQMNSLKPEVTAVYYCAAAYPRVTYKYGYYWGLGTQVTVSS | high polyreactivity |
| QVQLVESGGGLVQAGGSLRLSCAASGSIFGSYAMGWYRQAPGKERELVADISRRGSSTYYADSVKGRFTISRDNAKNTVYLQMNSLKPEDTAVYYCNKVFARSLSSRYQAYDYWGQGTQVNVSS | high polyreactivity |
| QVQLVESGGGLVQAGGSLRLSCAASGSIFGSYAMGWYRQAPGKERELVAVITSASTNYADSVKGRFTISRDNAKNTVYLQMNSLKPEDTAVYYCNAALSHDFWNYRLGYWGQGTQVTVSS | low polyreactivity |
| QVQLVESGGGLVQAGGSLRLSCAASGSIFGSYAMGWYRQATGNERELVAAIRSSASTYYADSVKGRFTISRDNAKNTVYLQMYSLKPEDTAVYYCAAKFTSYGRSRYYSWGQGTQVTVSS | high polyreactivity |
| QVQLVESGGGLVQAGGSLRLSCAASGSIFGSYTMGWYRQAPGKERELVAAISLGGGSTYYADSVKGRFSISRDNAKNTVYLQMNSLKPEDTAVYYCAAGFTYPYDYWGQGTQVTVSS | low polyreactivity |
